IntAct's records for PubMed 23523425

B1: Polycomb group RING finger protein 2 (Homo sapiens), P35227 (parent)
chain: MHRTTRIKITELNPHLMCALCGGYFIDATTIVECLHSFCKTCIVRYLETNKYCPMCDVQVHKTRPLLSIRSDKTLQDIVYKLVPGLFKDEMKRRRDFYAAYPLTEVPNGSNEDRGEVLEQEKGALSDDEIVSLSIEFYEGARDRDEKKGPLENGDGDKEKTGVRFLRCPAAMTVMHLAKFLRNKMDVPSKYKVEVLYEDEPLKEYYTLMDIAYIYPWRRNGPLPLKYRVQPACKRLTLATVPTPSEGTNTSGASECESVSDKAPSPATLPATSSSLPSPATPSHGSPSSHGPPATHPTSPTPPSTASGATTAANGGSLNCLQTPSSTSRGRKMTVNGAPVPPLT
partner: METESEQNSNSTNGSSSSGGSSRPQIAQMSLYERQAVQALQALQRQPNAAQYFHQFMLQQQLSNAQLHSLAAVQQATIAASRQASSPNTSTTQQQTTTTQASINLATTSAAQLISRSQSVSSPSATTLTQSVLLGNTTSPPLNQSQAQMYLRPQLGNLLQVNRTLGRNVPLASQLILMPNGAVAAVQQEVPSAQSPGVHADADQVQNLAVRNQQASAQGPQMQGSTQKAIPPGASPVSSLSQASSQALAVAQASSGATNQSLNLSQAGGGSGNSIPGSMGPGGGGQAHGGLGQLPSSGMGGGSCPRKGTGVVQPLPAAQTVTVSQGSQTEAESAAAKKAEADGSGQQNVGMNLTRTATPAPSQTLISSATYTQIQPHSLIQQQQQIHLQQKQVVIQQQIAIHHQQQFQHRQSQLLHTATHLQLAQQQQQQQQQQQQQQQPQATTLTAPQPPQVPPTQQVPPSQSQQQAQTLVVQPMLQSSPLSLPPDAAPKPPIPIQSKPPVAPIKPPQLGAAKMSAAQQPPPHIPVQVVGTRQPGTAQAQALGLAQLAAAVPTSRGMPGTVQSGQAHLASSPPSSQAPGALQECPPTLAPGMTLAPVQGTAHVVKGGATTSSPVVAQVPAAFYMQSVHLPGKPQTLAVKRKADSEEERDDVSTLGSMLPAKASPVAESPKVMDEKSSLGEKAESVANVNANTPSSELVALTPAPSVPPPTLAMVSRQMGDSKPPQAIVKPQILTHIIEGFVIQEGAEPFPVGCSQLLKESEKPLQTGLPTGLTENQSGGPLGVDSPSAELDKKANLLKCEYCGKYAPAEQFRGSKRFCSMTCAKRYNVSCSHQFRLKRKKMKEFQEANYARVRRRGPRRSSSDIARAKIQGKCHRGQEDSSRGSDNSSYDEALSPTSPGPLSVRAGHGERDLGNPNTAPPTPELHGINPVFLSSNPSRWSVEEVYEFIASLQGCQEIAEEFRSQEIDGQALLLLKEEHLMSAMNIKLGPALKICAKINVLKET
B2: Polycomb complex protein BMI-1 (Homo sapiens), P35226 (parent)
chain: MHRTTRIKITELNPHLMCVLCGGYFIDATTIIECLHSFCKTCIVRYLETSKYCPICDVQVHKTRPLLNIRSDKTLQDIVYKLVPGLFKNEMKRRRDFYAAHPSADAANGSNEDRGEVADEDKRIITDDEIISLSIEFFDQNRLDRKVNKDKEKSKEEVNDKRYLRCPAAMTVMHLRKFLRSKMDIPNTFQIDVMYEEEPLKDYYTLMDIAYIYTWRRNGPLPLKYRVRPTCKRMKISHQRDGLTNAGELESDSGSDKANSPAGGIPSTSSCLPSPSTPVQSPHPQFPHISSTMNGTSNSPSGNHQSSFANRPRKSSVNGSSATSSG
partner: B1 partner

Variants of: B1
Settings: with phc1_human PHC1, P78364

Effect of a mutation on the interaction, decreasing interaction strength:
F180D
F165A
R164A

Variants of: B2
Settings: with phc1_human PHC1, P78364

Effect of a mutation on the interaction, decreasing interaction strength:
R165A
F178D
Y163A
